Tests used:
[1] = molecular target: Cmr-α ribonucleoprotein complex (RNP) (S. islandicus | S. islandicus (endogenous in the expression strain))
AcrIIIB2 [2] = molecular target: T1, AcrIIIB2 (Sulfolobus islandicus rod-shaped virus …, UniProt A0A1B3SN31 1-149); experiment: EMSA; 10 mM EDTA; no difference in affinity among RNAs; EMSA: 20 mM MES pH 6.0, 10 mM EDTA, 250 nM FAM substrate, 70 C for 5 min (10 min stated for RNP in Methods); 12% native PAGE in 0.5x TB; conditions: protein: recombinant, tags: C-terminal 6xHis (pET30a)
T1 sequence: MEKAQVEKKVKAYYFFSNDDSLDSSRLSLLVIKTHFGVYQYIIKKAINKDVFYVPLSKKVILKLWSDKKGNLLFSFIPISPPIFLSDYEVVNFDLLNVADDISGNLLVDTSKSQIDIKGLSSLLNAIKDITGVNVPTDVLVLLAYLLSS

AcrIIIB2 [3] = molecular target: T1, AcrIIIB2; experiment: EMSA; 250 nM RNA, 0-15 uM protein, 10 mM EDTA, 70 C; also binds at lower temperature; EMSA: 20 mM MES pH 6.0, 10 mM EDTA, 250 nM FAM substrate, 70 C for 5 min (10 min stated for RNP in Methods); 12% native PAGE in 0.5x TB; conditions: protein: recombinant; tags: C-terminal 6xHis (pET30a); label: 5'-FAM

Work on His-tagged AcrIIIB2 (natural protein) yielded a cis RNase activity of Cmr-α RNP (100 nM) on 250 nM labeled target RNA: uncleaved target RNA, AcrIIIB2 to Cmr-α RNP molar ratios 0 to 30 [1] of 80% and a trans ssDNase activity of Cmr-α RNP (100 nM) with 300 nM target RNA and 300 nM labeled ssDNA: uncleaved ssDNA, AcrIIIB2 to Cmr-α RNP molar ratios 0 to 30 [1] of 15%.

GUGACAGCAUCUCAUACUAGACAG (ssRNA) [RNA4]: binds (AcrIIIB2 [2]; label: 3'-FAM).

CCAAGCUAAUCUACUAUAGAAUUGAAAGCU (ssRNA) [RNA2]: binds (AcrIIIB2 [2]; label: 5'-FAM).

AGUCUCGUAACCAGUCCAAGAACAGAAACCAGUCAAAUGACCG (ssRNA) [RNA1 (target RNA, 43 nt)]: binds (AcrIIIB2 [3]).

UCAAAGCUUAGAUACCCUGGA (ssRNA) [RNA3]: binds (AcrIIIB2 [2]; label: 5'-FAM).
